The results in this text go back to patent US20220372107A1.

One experiment has as its target T1, TGFβ3 (human) (UniProt P10600).
T1 sequence (looked up): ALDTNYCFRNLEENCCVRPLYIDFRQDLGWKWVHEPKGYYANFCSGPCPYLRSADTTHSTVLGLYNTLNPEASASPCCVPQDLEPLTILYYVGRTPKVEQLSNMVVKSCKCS

The target in another experiment is T2, activin A (UniProt P08476).
T2 sequence (looked up): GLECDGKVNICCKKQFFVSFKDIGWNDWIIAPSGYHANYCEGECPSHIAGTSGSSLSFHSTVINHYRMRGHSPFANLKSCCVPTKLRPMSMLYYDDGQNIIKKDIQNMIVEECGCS

The target of another experiment is T3, GDF11 (UniProt O95390).
T3 sequence (looked up): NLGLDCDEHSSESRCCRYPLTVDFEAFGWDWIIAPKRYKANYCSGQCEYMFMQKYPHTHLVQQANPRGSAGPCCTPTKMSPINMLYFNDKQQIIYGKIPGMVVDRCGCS

A further experiment concerns the target TGFβ1 (human) (UniProt P01137).
The next experiment has as its target T4, activin B (UniProt P09529).
T4 sequence (looked up): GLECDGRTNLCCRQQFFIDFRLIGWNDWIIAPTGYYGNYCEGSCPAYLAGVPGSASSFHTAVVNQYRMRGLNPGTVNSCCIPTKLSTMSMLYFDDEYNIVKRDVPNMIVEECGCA

For the next experiment, the target named is T5, BMP10 (UniProt O95393).
T5 sequence (looked up): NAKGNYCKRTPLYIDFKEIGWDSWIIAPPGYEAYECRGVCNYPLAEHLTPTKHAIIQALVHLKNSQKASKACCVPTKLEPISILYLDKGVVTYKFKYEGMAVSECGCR

Another experiment deals with T6, TGFβ2 (human) (UniProt P61812).
T6 sequence (looked up): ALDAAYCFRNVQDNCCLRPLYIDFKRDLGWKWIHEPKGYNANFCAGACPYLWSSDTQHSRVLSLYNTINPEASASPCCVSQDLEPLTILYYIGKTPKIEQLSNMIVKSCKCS

Sequence of UniProt P01137 (P01137 279-390 limits assumed): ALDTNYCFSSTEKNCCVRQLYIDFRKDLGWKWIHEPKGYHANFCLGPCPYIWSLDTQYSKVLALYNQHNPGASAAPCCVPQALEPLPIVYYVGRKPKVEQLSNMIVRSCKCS

Turning to “ActRIIA-Fc:TβRII-Fc heterodimer (Fc fusion)”, the IC50 (CAGA12 luciferase reporter gene assay) in the experiment with TGFβ3 (human) was 0.39 nM; in the experiment with activin A it was 1.28 nM; with GDF11, 18.1 nM; with TGFβ1 (human), 0.21 nM; with activin B, 1.16 nM; with BMP10, more than 20 µg/mL. This substance returned an IC50 (CAGA12 luciferase reporter gene assay) in the experiment with TGFβ2 (human) of more than 20 µg/mL.
TβRII-Fc homodimer (Fc fusion): the IC50 (CAGA12 luciferase reporter gene assay) with activin A was more than 20 µg/mL; with GDF11 it was more than 20 µg/mL; in the experiment with TGFβ1 (human) it was 0.017 nM; in the experiment with activin B it was more than 20 µg/mL; with BMP10, more than 20 µg/mL; with TGFβ2 (human) it was more than 20 µg/mL.
